Data taken from patent US7081343.

Molecular target: T7-RelA, Q04206
Sequence (Q04206 whole entry): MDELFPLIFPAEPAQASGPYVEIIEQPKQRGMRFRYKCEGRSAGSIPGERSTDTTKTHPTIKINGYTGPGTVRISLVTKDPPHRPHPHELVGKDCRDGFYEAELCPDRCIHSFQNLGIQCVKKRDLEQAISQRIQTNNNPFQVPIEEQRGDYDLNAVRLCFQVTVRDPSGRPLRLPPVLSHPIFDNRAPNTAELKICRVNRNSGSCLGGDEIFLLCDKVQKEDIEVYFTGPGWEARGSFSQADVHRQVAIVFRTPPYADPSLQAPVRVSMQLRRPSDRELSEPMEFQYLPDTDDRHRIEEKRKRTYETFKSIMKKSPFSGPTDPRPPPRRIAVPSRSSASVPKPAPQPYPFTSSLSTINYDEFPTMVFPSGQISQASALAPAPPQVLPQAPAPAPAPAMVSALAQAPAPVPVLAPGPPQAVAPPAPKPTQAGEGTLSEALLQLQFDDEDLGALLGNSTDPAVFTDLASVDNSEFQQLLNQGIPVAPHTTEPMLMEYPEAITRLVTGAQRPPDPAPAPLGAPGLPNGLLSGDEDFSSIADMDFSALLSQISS

B1: P/CAF (protein)
chain: MSEAGGAGPGGCGAGAGAGAGPGALPPQPAALPPAPPQGSPCAAAAGGSGACGPATAVAAAGTAEGPGGGGSARIAVKKAQLRSAPRAKKLEKLGVYSACKAEESCKCNGWKNPNPSPTPPRADLQQIIVSLTESCRSCSHALAAHVSHLENVSEEEMNRLLGIVLDVEYLFTCVHKEEDADTKQVYFYLFKLLRKSILQRGKPVVEGSLEKKPPFEKPSIEQGVNNFVQYKFSHLPAKERQTIVELAKMFLNRINYWHLEAPSQRRLRSPNDDISGYKENYTRWLCYCNVPQFCDSLPRYETTQVFGRTLLRSVFTVMRRQLLEQARQEKDKLPLEKRTLILTHFPKFLSMLEEEVYSQNSPIWDQDFLSASSRTSQLGIQTVINPPPVAGTISYNSTSSSLEQPNAGSSSPACKASSGLEANPGEKRKMTDSHVLEEAKKPRVMGDIPMELINEVMSTITDPAAMLGPETNFLSAHSARDEAARLEERRGVIEFHVVGNSLNQKPNKKILMWLVGLQNVFSHQLPRMPKEYITRLVFDPKHKTLALIKDGRVIGGICFRMFPSQGFTEIVFCAVTSNEQVKGYGTHLMNHLKEYHIKHDILNFLTYADEYAIGYFKKQGFSKEIKIPKTKYVGYIKDYEGATLMGCELNPRIPYTEFSVIIKKQKEIIKKLIERKQAQIRKVYPGLSCFKDGVRQIPIESIPGIRETGWKPSGKEKSKEPRDPDQLYSTLKSILQQVKSHQSAWPFMEPVKRTEAPGYYEVIRFPMDLKTMSERLKNRYYVSKKLFMADLQRVFTNCKEYNPPESEYYKCANILEKFFFSKIKEAGLIDK
acetylation of T7-RelA (anti-T7 immunoprecipitation, anti-acetylated lysine blot): P/CAF failed to mediate this response
